# From the RNAGym collection of RNA variant scans (doi:10.1073/pnas.2313332121)
# B1: TPR t1 (parent)
# chain: GACCAAUCUGCCCUCAGAGCUCGAGAACAUCUUCGGAUGCAGAGGAGGCAGGCUUCGGUGGCGCGAUAGCGCCAACGUCCUCAACCUCCAAUGCAUCCCACCACAUGAUGAUGCCUGAAGAGCCUUGGUUUUUUG
# Variants of: B1
# Assay: polymerase ribozyme fitness, log enrichment relative to wild type (log ratio); higher = more active; in vitro selection for triplet polymerase activity
# Method in brief: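 Each subunit of a heterodimeric triplet polymerase ribozyme was mutagenized into a library by PCR, transcribed, and subjected to one round of in vitro selection, run in triplicate. Libraries were annealed with a biotinylated primer, the partner subunit and triplets, incubated frozen at −7 °C, and extended constructs were gel-excised, captured on streptavidin beads and recovered by RT-PCR. Input and output libraries were sequenced on Illumina, keeping genotypes with ≥10 input reads and ≥1 read per output. Fitness is log base 2 of genotype enrichment divided by wild-type enrichment, from inverse-variance-weighted replicate averages.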
row,Variant,polymerase ribozyme fitness (log ratio)
1,C20U A41C U116C,-4.23
2,C22G C94G,-4.33
3,U21C G42A C88U C89A,-3.87
4,U21C U112A G122C C123U,-0.556
5,C20G G71A C72A C80U G110C G117C,-6.92
6,C20U U32C G71A U112C,-1.25
7,C20G C72A U87C G113A U130G,-1.05
8,U21A C88A G110A,-4.92
9,C20U G42C,-2.14
10,C20A C49A G63U,-4.62
11,C22A A75U U78A U116G,-4.77
12,U21C G110U G113U,-4.79
13,C20G C56U C123A,-5.13
14,C20G G93A,-5.03
15,C22A C85U,-4.92
16,C20A A46C C62U C86U,-3.97
17,C20U A26G G71U U109A,-5.57
18,U21G C88G U96A C102U,-5.77
19,U21A G39C G77A,-1.28
20,C22G C72U,-3.13
21,C20A C79A,-3.62

row,Variant,polymerase ribozyme fitness (log ratio)
1,C20U C28G G45A G52U G69U C114U,-5.61
2,C22A A43G A46U C72U G113C U116G,-6.81
3,C20U U132C,-1.93
4,C22G A41U G63U U78C C99G,-6.66
5,C20A U132A,-2.24
6,C22G C82U,-3.57
7,C20U A43G C53A G110U G120U,-6.4
8,C20A C82A U87G,-1.92
9,C20G A37G A118U,-3.12
10,C22A G60C,-5.44
11,C20U G57A G58C,-2.72
12,C20U A83G C102A,-5.64
13,C22A G57C G69U C76A,-5.3
14,C22G C64U C115U A121U,-2.57
15,C20A C104A,-3.99
16,U21A U33G G42C A43U G63U G117A,-6.65
17,U21G C62G C101U,-5
18,C20U G61C C114U,-1.73
19,C20U G44U G93A,-3.1
20,U21A U59G U81G C82G C115U,-4.27
21,C20G C72U,-4.16

row,Variant,polymerase ribozyme fitness (log ratio)
1,C20A C28G C94U A111G,-7.69
2,C20U G48C U54G A74C,-3.11
3,U21A C72A,-0.312
4,U21G G93U A111G U112G,-2.45
5,C20A C49G U106C,-3.68
6,C20G C94U C114A G122U U125G,-6.15
7,C20U U112G,-1.11
8,C22A A46C,-5.4
9,C20G U125G,-4.91
10,U21G U38C,-2.11
11,C20G G117U,-5.16
12,C22A A29G C40G G61U C72A A83U U131A,-5.02
13,C22A G57C C102A,-5.72
14,C22G A43U U106A C115A,-1.37
15,C20U C53A G71A A91G,-5.09
16,U21G G42U U112A,0.673
17,U21G C22U U92G C104A U109A,-5.96
18,C20A C73A,-2.14
19,C20U G52C,-2.19
20,C20A C53U,-2.46
21,C22G A29C G61U G63C C97A C124A,-6.38

row,Variant,polymerase ribozyme fitness (log ratio)
1,C22G G23A G61U C89U C114U,-3.99
2,U21A A27C A68G C94A,-6.24
3,U21A A43C,-2.9
4,C20A G48A C49G G61A U87G A90C,-5.02
5,C20U C40A G44C C49G G71A C115A A119G,-4.83
6,C20G G135C,-3.68
7,C20U C34U,-5.22
8,C20G C56A,-4.28
9,C20U A100U G120U,-1.89
10,C20U A43G G63A,-4.59
11,C20U G52A G60A,-2.6
12,C20A G93A,-3.32
13,C20U G52C C72U,-2.41
14,C20A C28A G47C C97U G110C,-6.66
15,C22A C73G C82A G120U U125C,-5.37
16,U21A C89U,-0.222
17,C22G C34A G52C,-4.14
18,C20A U32G G35C G93A G113A U125A,-6.57
19,C22G A46C C62G A74U,-6.42
20,C20A C76A U106A,-4.96
